Series [1] deals with the molecule itself. Put plainly: SEC-SAXS; BioSEC-3 column, 15 °C, 0.3 mL/min, 20 mM Na-HEPES pH 7.3, 55 mM KOAc, 10 mM NaCl, 1 mM TCEP; purification tags cleaved off; SWING beamline, SOLEIL. For orientation: In gel filtration, larger molecules generally elute earlier.
Series [2] concerns the molecule itself. The experiment in a line: SEC-MALS; SEC-MALLS, BioSEC-3 column, 25 °C, 0.4 mL/min, 20 mM Na-phosphate pH 7.0, 100 mM NaCl, 2 mM 2-mercaptoethanol; His6-tag kept.

B1: ADAR1-dsRBD3 dsRBD3-short construct (residues 716-797) (domain or fragment, human, UniProt P55265 716-797, looked up)
chain: IGELVRYLNTNPVGGLLEYARSHGFAAEFKLVDQSGPPHEPKFVYQAKVGGRWFPAVCAHSKKQGKQEAADAALRVLIGENE
notes: human ADAR1, folded part of the third dsRBD, residues 716-797 (Uniprot entry P55265); Modified pET28a with TEV site; also called dsRBD-short; ADAR1-dsRBD3 (crystal structures); source: E. coli BL21(DE3) Codon-plus (RIL), purified (Ni-NTA, TEV cleavage, SEC); not shown: His6, N-terminal, cleaved
What is called stoichiometry N is the number of molecules, sites or subunits per partner or assembly. B1: the “stoichiometry N” value in series [1] was 2.

B2: ADAR1-dsRBD3 dsRBD3-mid construct (residues 708-801), tag cleaved (domain or fragment, human, UniProt P55265 708-801, looked up)
chain: MMPNKVRKIGELVRYLNTNPVGGLLEYARSHGFAAEFKLVDQSGPPHEPKFVYQAKVGGRWFPAVCAHSKKQGKQEAADAALRVLIGENEKAER
notes: human ADAR1, third dsRBD, residues 708-801 (Uniprot entry P55265); Modified pET28a with TEV site; also called dsRBD-mid; source: E. coli BL21(DE3) Codon-plus (RIL), purified (Ni-NTA, TEV cleavage, SEC); not shown: His6, N-terminal, cleaved
As for B2, in series [1], the “stoichiometry N” value is 2.

B3: ADAR1-dsRBD3 (residues 708-801) with uncleavable His6-tag, wild type (domain or fragment, human, UniProt P55265 708-801, looked up)
chain: B2 chain
notes: human ADAR1, third dsRBD, residues 708-801 (Uniprot entry P55265); pET28a between NdeI and XhoI; also called wild-type ADAR1-dsRBD3; source: E. coli BL21(DE3) Codon-plus (RIL), purified (Ni-NTA, SEC); not shown: His6, N-terminal, kept
Consider B3, for which, in series [2], the “stoichiometry N” value came out at 2.

B4: ADAR1-dsRBD3 dsRBD3-long construct (residues 688-817) (domain or fragment, human, UniProt P55265 688-817, looked up)
chain: MASDNQPEGMISESLDNLESMMPNKVRKIGELVRYLNTNPVGGLLEYARSHGFAAEFKLVDQSGPPHEPKFVYQAKVGGRWFPAVCAHSKKQGKQEAADAALRVLIGENEKAERMGFTEVTPVTGASLRR
notes: human ADAR1, third dsRBD with flanking regions, residues 688-817 (Uniprot entry P55265); Modified pET28a with TEV site; source: E. coli BL21(DE3) Codon-plus (RIL), purified (Ni-NTA, TEV cleavage, SEC); not shown: His6, N-terminal, cleaved
On to B4, for which, in series [1], the “stoichiometry N” value was 2.

For the origin of these results see publication PMC11582362 (Nature Communications, 2023).
